Patent publication US20120208867, “HMGB1 BINDING NUCLEIC ACID MOLECULE AND APPLICATIONS THEREOF” (published 2012)

Target: T1, His-tagged HMGB1 (UniProt P09429 P09429:1-215)
Experiment: SPR; 150 nM protein
Details: tags: N-terminal His-tag
Method: (§1) The ability of each of the aforementioned RNA aptamers to bind to HMGB1 in which His-tag was added to the N-terminus (His-tag-added HMGB1) was examined. For the analysis of the aforementioned binding ability, a BIACORE (registered trademark) X (manufactured by GE Healthcare) was used according to its instruction manual.
(§2) First, a sensor chip (trade name: Sensor Chip SA, manufactured by GE Heathcare) specially made for a BIACORE was set on the aforementioned BLACORE (registered trademark) X. Biotinylate deoxythymidine (5 μmol/L) was injected into the flow cell 2 of the aforementioned sensor chip using a running buffer and subjected to binding until the signal intensity (RU: resonance unit) reached about 1000 RU. For the aforementioned biotinylated deoxythymidine, 20-base-long deoxythymidine in which the 5′ end was biotinylated was used. Then, 10 μg/mL of an RNA aptamer was injected at a flow rate of 20 μL/min for 1 min into the aforementioned flow cells 1 and 2 of the aforementioned chip using a running buffer and subjected to binding until the signal intensity reached about 1000 RU. Next, […] for 30 sec using the aforementioned running buffer, and under the same conditions the aforementioned running buffer was allowed to flow continuously for washing. Simultaneously with the injection of the aforementioned His-tag-added HMGB1 and washing with the aforementioned running buffer, signal intensity was measured. The aforementioned running buffer was composed of 20 mmol/L of HEPES, 500 mmol/L of NaCl, 0.1 mmol/L of MgCl₂, and 0.1% Triton X-100 (registered trademark), with the pH thereof being 7.2. As a blocking agent for suppressing nonspecific binding, tRNA was used in a concentration of 1 mg/mL. In a comparative example, signal intensity was measured in the same manner except that the aforementioned comparative example RNA was used in place of the aforementioned example RNA aptamers.

T1 sequence (P09429 whole entry, one chain of several): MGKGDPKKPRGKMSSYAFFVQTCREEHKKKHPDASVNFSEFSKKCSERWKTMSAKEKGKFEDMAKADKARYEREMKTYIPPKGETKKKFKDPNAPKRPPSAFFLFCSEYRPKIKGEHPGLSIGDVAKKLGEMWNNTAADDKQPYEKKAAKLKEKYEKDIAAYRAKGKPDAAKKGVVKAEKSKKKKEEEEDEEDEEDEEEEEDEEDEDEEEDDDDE

Binding result, binds:
GGGCAGUAAGACACGUAGCACCAGUGUGCCUGGACGUGCAGU (ssRNA) [R8c6_1-22-S6]
GGGCAGUAAGACACGUAGCACCAGUGUGCCUGGACGUGCAGU (ssRNA, 2'-F on all C and U) [2'F-R8c6_1-22-S6]
GGGGUAAGACACGUAGCACCAGUGUGCCUGGACGUGCAGU (ssRNA) [R8c6_1-24-S6]
GGGGUAAGACACGUAGCACCAGUGUGCCUGGACGUGCAGU (ssRNA, 2'-F on all C and U) [2'F-R8c6_1-24-S6]
GGGACAGUAAGACACGUAGCACCAGUGUGCCUGGACGUGCAGU (ssRNA) [R8c6_1-21-S6]
GGGAGACACGUAGCACCAGUGUGCCUGGACGUGCAGU (ssRNA, 2'-F on all C and U) [2'F-R8c6_1-27-S6]
GGGAAGACACGUAGCACCAGUGUGCCUGGACGUGCAGU (ssRNA, 2'-F on all C and U) [2'F-R8c6_1-26-S6]
GGGUAAGCACGUAGCACCAGUGUGCCUGGACGUGCAGU (ssRNA, 2'-F on all C and U) [2'F-R8c6_1-25-S6A]
GGGAGUAAGACACGUAGCACCAGUGCCUGGACGUGCAGU (ssRNA) [R8c6_1-23-S8]
GGGAGUAAGACACGUAGCACCAGUGCCUGGACGUGCAGU (ssRNA, 2'-F on all C and U) [2'F-R8c6_1-23-S8]
GGGUAAGACACGUAGAACCAGUGACUGGAAGUGCAGU (ssRNA) [R8c6_1-25-S8CA]
GGGUAAGACACGUAGCACCAGUGCCUGGACGUGCAGU (ssRNA, 2'-F on all C and U) [2'F-R8c6_1-25-S8]
GGGUAAGACACGUAGAACCAGUGACUGGAAGUGCAGU (ssRNA, 2'-F on all C and U) [2'F-R8c6_1-25-S8CA]
GGGCAGUAAGACACGUAGCACCAGUGCCUGGACGUGCAGU (ssRNA) [R8c6_1-22-S8]
GGGCAGUAAGACACGUAGCACCAGUGCCUGGACGUGCAGU (ssRNA, 2'-F on all C and U) [2'F-R8c6_1-22-S8]
GGGAGUAAGACACGUAGCACCAGUGUGCCUGGACGUGCAGU (ssRNA) [R8c6_1-23-S6]
GGGAGUAAGACACGUAGCACCAGUGUGCCUGGACGUGCAGU (ssRNA, 2'-F on all C and U) [2'F-R8c6_1-23-S6]
GGGACAGUAAGACACGUAGCACCAGUGCCUGGACGUGCAGU (ssRNA) [R8c6_1-21-S8]
GGGUAAGACACGUAGACCAGUGUGCCUGGACGUGCAGU (ssRNA, 2'-F on all C and U) [2'F-R8c6_1-25-S6C]
GGGUAAGACACGUAGCACCGUGUGCCGGACGUGCAGU (ssRNA, 2'-F on all C and U) [2'F-R8c6_1-25-S6A2]
GGGUAAGACACGUAGCACCAGUGUGCCUGGACGUGCAGU (ssRNA, 2'-F on all C and U) [2'F-R8c6_1-25-S6]
GGGGUAAGACACGUAGCACCAGUGCCUGGACGUGCAGU (ssRNA) [R8c6_1-24-S8]
GGGGUAAGACACGUAGCACCAGUGCCUGGACGUGCAGU (ssRNA, 2'-F on all C and U) [2'F-R8c6_1-24-S8]
GGGUAAGACACGUAGCACCAGUGUGCCUGGAGUGCAGU (ssRNA, 2'-F on all C and U) [2'F-R8c6_1-25-S6C2]

Target: T1, His-tagged HMGB1
Experiment: SPR; 160 nM protein
Details: tags: N-terminal His-tag
Method: as §1, §2

Binding result, binds:
GGGUAAGACACGUAGCACCAGUGUGCCUGGACGUGCGU (ssRNA) [R8c6_1-25-S6A3]
GGGAGACACGUAGCACCAGUGUGCCUGGACGUGCAGU (ssRNA) [R8c6_1-27-S6]
GGGUAAGCACGUAGCACCAGUGUGCCUGGACGUGCAGU (ssRNA) [R8c6_1-25-S6A]
GGGAAGACACGUAGCACCAGUGUGCCUGGACGUGCAGU (ssRNA) [R8c6_1-26-S6]
GGGUAAGACACGUAGCACCAGUGCCUGGACGUGCAGU (ssRNA) [R8c6_1-25-S8]
GGGUAAGACACGUAGACCAGUGUGCCUGGACGUGCAGU (ssRNA) [R8c6_1-25-S6C]
GGGUAAGACACGUAGCACCGUGUGCCGGACGUGCAGU (ssRNA) [R8c6_1-25-S6A2]
GGGUAAGACACGUAGCACCAGUGUGCCUGGACGUGCAGU (ssRNA) [R8c6_1-25-S6]
GGGUAAGACACGUAGCACCAGUGUGCCUGGAGUGCAGU (ssRNA) [R8c6_1-25-S6C2]
